Assays:
[1] = molecular target: T1, CLL-1-ECD-V5His recombinant protein (human, UniProt Q5QGZ9 67-265); test: SPR (BIAcore), mAb captured via anti-mouse mAb, antigen in solution, 25° C.
T1 construct: also called recombinant CLL-1 protein; CLL-1 V5-6His protein; not shown: C-terminal V5-His tag
T1 sequence: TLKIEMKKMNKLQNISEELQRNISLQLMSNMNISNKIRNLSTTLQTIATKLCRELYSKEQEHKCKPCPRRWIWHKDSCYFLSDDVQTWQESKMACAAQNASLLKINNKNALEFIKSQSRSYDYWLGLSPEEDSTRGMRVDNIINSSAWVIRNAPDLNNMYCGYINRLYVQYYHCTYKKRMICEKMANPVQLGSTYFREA
Description: (§1) Kinetic rate constants (kₐ and kd) were determined using surface plasmon resonance and affinities (KD) were then calculated from the rate constants (kd/kₐ). Surface plasmon resonance was carried out on a BlAcore system (Biacore International AB, Uppsala, Sweden). Chimeric monoclonal antibodies (21.16 or 1075.7) were diluted to 2 μg/ml and then captured on the biosensor surface using an anti-mouse mAb. Antigen was diluted to a starting concentration of 46 nM and tested for binding to the mAb samples using a 3-fold dilution series. Each of 5 concentrations was tested twice except the highest concentration which was tested 5 times in total, two times with a short dissociation of 300 seconds followed by three times with a dissociation of 60 minutes. The data sets from the long dissociation experiments were globally fit with the shorter association experiments to determine binding constants for the interactions. The analysis was carried out in HBS, pH 7.4 buffer at 25° C. (Canziani et al, Anal. Biochem. 352:301-307 (2004)).

[2] = molecular target: T2, CLL-1 on cells (HEK293 cells stably transfected with CLL-1; HL-60 and other AML cells) (human, UniProt Q5QGZ9 1-265); test: cell-based or functional assay
T2 sequence: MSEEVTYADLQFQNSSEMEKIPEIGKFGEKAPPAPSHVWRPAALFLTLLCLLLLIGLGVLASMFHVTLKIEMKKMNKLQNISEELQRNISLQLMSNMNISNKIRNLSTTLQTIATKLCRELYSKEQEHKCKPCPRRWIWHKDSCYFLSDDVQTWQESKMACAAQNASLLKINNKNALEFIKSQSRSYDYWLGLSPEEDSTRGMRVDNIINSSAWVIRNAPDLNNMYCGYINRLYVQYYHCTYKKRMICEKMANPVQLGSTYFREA

[3] = molecular target: T1, CLL-1-ECD-V5His recombinant protein; test: SPR (BIAcore), mAb captured via anti-mouse mAb, antigen in solution, 25° C.; KD = kd/ka
Description: as §1

kon [1] [M⁻¹ s⁻¹] | koff [1] [s⁻¹] | Kd [3] [nM] | Binder | EC50 of complement-dependent cytotoxicity (CDC) on OCI-AML5 cells [2] [mg/L] | EC50 of ex vivo cytotoxicity on patient AML sample 'M1' [2] [mg/L] | EC50 of ex vivo cytotoxicity on patient AML sample 'M5a' [2] [mg/L] | complement-dependent cytotoxicity (CDC), EC50, HEK293 cells expressing CLL-1 [2] [mg/L]
554000 |  |  | chimeric anti-CLL-1 monoclonal antibody 21.16 (antibody, human IgG1, V domains shown, No cleavage site is stated; also called mAb 21.16; VL1VH1) VH: QVQLQQPGAELVKPGTSVKLSCKASGYTFTRYWMHWVKQRPGQGLEWIGMIHPSSGSTSYNEKVKNKATLTVDRSSTTAYMQLSSLTSEDSAVYYCARDGDYYYGTGDYWGQGTTLTVSS VL: QIVLSQSPAILSASPGEKVTMTCRASSSINYMHWYQQKPGSSPKPWIFATSNLASGVPSRFSGSGSGTSYSLTISRVEAEDAATYYCQQWRSDRALTFGAGTKLELIR | ~0.0071 | 0.284 | 0.146 | ~0.088
417000 | 0.00015 | 0.36 | chimeric anti-CLL-1 monoclonal antibody 1075.7 (antibody, human IgG1, V domains shown, No cleavage site is stated; also called mAb 1075.7; clone #1075.7) VH: DIQLQESGPGLVKPSQSLSLTCSVTGYSITSAYYWNWIRQFPGNKLEWMGYISYDGRNNYNPSLKNRISITRDTSKNQFFLKLNSVTTEDTATYYCAKEGDYDVGNYYAMDYWGQGTSVTVSS VL: ENVLTQSPAIMSASPGEKVTMTCRASSNVISSYVHWYQQRSGASPKLWIYSTSNLASGVPARFSGSGSGTSYSLTISSVEAEDAATYYCQQYSGYPLTFGAGTKLELKR |  |  |  | 

Source: patent publication US20100285037A1 (ARCA BIOPHARMA, published 2010)
